# B1: monoclonal antibody to human PD-L1, clone 29E.2A3 (mouse IgG2b) (antibody, from another filing, V domains shown)
# VH: EVQLQQSGPELVKPGASVKMSCKASGYTFTSYVMHWVKQKPGQGLEWIGYVNPFNDGTKYNEMFKGKATLTSDKSSSTAYMELSSLTSEDSAVYYCARQAWGYPWGQGTLVTVSA
# VL: DIVLTQSPASLAVSLGQRATISCRATESVEYYGTSLVQWYQQKPGQPPKLLIYAASSVDSGVPARFSGSGSGTDFSLTIHPVEEDDIAMYFCQQSRRVPYTFGGGTKLEIK
# Target: human PD-L1 (human) (UniProt Q9NZQ7)
# Test: cell-based or functional assay
# Chain of UniProt Q9NZQ7 (Q9NZQ7 19-290): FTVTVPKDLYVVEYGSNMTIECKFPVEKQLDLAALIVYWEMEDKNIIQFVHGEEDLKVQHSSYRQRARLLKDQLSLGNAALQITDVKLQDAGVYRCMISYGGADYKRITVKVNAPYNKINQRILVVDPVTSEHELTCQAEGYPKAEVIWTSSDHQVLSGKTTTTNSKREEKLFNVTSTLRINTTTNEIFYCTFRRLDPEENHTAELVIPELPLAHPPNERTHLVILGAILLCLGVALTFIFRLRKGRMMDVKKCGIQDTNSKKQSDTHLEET
binder,measurement,value
B1,"fold increase in B*4201 TL9 tetramer+ CD8 T cells, 6-day CFSE proliferation assay of PBMC with TL9 peptide plus anti-PD-L1 blocking antibody (peptide alone: 4.8-fold)",10.3 fold
same,"percentage of B*4201 TL9-specific CD8 T cells after 6-day stimulation with peptide, in the presence of anti-PD-L1 blocking antibody (without it: 5.7%)",12.4%

# Reference: patent US20190309065A1
